Entries after “also recorded” stand apart in the source; their conditions may differ.
How the values were obtained:
Format in all cases: in vivo, NOD/SCID mice
[1] = test system: UM-PE13 breast tumor cells; assay: UM-PE13 breast tumor xenograft, staggered dosing of OMP-18R5 and paclitaxel (Example 2)
Description: (§1) FIG. 2. Inhibition of breast tumor growth in vivo by a Wnt pathway inhibitor in combination with a taxane using a staggered dosing schedule. UM-PE13 breast tumor cells were injected subcutaneously into NOD/SCID mice. […] OMP-18R5 was administered at 25 mg/kg and paclitaxel at 20 mg/kg. Agents were administered every three weeks and administered intraperitoneally. Data is shown as tumor volume (mm^3) over days post treatment.
Single cell suspensions of xenograft UM-PE13 breast tumor cells (20,000 cells) were injected subcutaneously into 6-8 week old NOD/SCID mice. UM-PE13 is a triple negative breast cancer. Tumors were allowed to grow 34 days until they reached an average volume of 80 mm^3. The mice were randomized (n=8 per group) and treated with paclitaxel, a combination of OMP-18R5 and paclitaxel administered on the same day, a combination of OMP-18R5 and paclitaxel where the paclitaxel was administered 3 days prior to OMP-18R5, a combination of OMP-18R5 and paclitaxel where OMP-18R5 was administered 3 days prior to the paclitaxel, or a control antibody. Mice were treated once every three weeks with OMP-18R5 at a dose of 25 mg/kg and paclitaxel at a dose of 20 mg/kg. OMP-18R5 and paclitaxel were administered intraperitoneally. Tumor growth was monitored and tumor volumes were measured with electronic calipers at the indicated time points. Data are expressed as mean±S.E.M.

[2] = test system: OMP-LU77 lung tumor cells; assay: OMP-LU77 lung tumor xenograft, staggered dosing of vantictumab and paclitaxel (Example 6); details: vantictumab 25 mg/kg administered two days prior to paclitaxel 15 mg/kg, every other week; versus same day, paclitaxel alone; FIG. 4
Description: as §1, with “4.” for “2.”, “lung” for “breast”, “OMP-LU77 lung” for “UM-PE13 breast”, “Vantictumab” for “OMP-18R5”, “15” for “20”, “other week” for “three weeks”
OMP-LU77 is a patient-derived non-small cell lung (NSCLC) tumor. Single cell suspensions of xenograft OMP-LU77 lung tumor cells (50,000 cells) were injected subcutaneously into NOD/SCID mice. Tumors were allowed to grow 37 days until they had reached an average volume of approximately 200 mm^3. Tumor-bearing mice were randomized into 4 groups (n=8-9 per group). […] Antibodies were dosed at 25 mg/kg, administered every other week. Paclitaxel was dosed at 15 mg/kg, also every other week. Tumor growth was monitored and tumor volumes were measured on the indicated days post-treatment. Data are expressed as mean±SEM.

[3] = test system: OMP-OV40 ovarian tumor cells; assay: OMP-OV40 ovarian tumor xenograft, staggered dosing of Wnt inhibitors and paclitaxel (Example 11); details: Wnt pathway inhibitor 25 mg/kg administered 2 days prior to paclitaxel 20 mg/kg, every two weeks i.p.; versus single agents; FIG. 9
Description: FIG. 9A-9B. Inhibition of ovarian tumor growth in vivo by a Wnt pathway inhibitor in combination with a taxane using a staggered dosing schedule. FIG. 9A. OMP-OV40 ovarian tumor cells were injected subcutaneously into NOD/SCID mice. Mice were treated with control antibody (-•-), OMP-18R5 (-▴-), paclitaxel (-▪-), or a combination of OMP-18R5 and paclitaxel, where OMP-18R5 was administered 2 days prior to administration of paclitaxel (-⋄-). […]. OMP-OV40 ovarian tumor cells were injected subcutaneously into NOD/SCID mice. Mice were treated with control antibody (-•-), OMP-54F28 (-▴-), paclitaxel (-▪-), or a combination of OMP-54F28 and paclitaxel, where OMP-54F28 was administered 2 days prior to administration of paclitaxel (-⋄-). OMP-18R5, OMP-54F28 and control antibody were administered at 25 mg/kg and paclitaxel was administered at 20 mg/kg. Agents were administered once every two weeks and administered intraperitoneally. Data is shown as tumor volume (mm^3) over days post treatment.
Single cell suspensions of xenograft OMP-OV40 ovarian tumor cells were injected subcutaneously into 6-8 week old NOD/SCID mice. Tumors were allowed to grow until they reached an average volume of approximately 128 mm^3. […] Tumor growth was monitored and tumor volumes were measured with electronic calipers at the indicated time points. Data are expressed as mean±S.E.M.

B1: OMP-18R5: anti-FZD antibody, IgG2, also known as vantictumab; heavy chain SEQ ID NO:3, light chain SEQ ID NO:4 (antibody)
heavy: EVQLVESGGGLVQPGGSLRLSCAASGFTFSHYTLSWVRQAPGKGLEWVSVISGDGSYTYYADSVKGRFTISSDNSKNTLYLQMNSLRAEDTAVYYCARNFIKYVFANWGQGTLVTVSSASTKGPSVFPLAPCSRSTSESTAALGCLVKDYFPEPVTVSWNSGALTSGVHTFPAVLQSSGLYSLSSVVTVPSSNFGTQTYTCNVDHKPSNTKVDKTVERKCCVECPPCPAPPVAGPSVFLFPPKPKDTLMISRTPEVTCVVVDVSHEDPEVQFNWYVDGVEVHNAKTKPREEQFNSTFRVVSVLTVVHQDWLNGKEYKCKVSNKGLPAPIEKTISKTKGQPREPQVYTLPPSREEMTKNQVSLTCLVKGFYPSDIAVEWESNGQPENNYKTTPPMLDSDGSFFLYSKLTVDKSRWQQGNVFSCSVMHEALHNHYTQKSLSLSPGK
light: DIELTQPPSVSVAPGQTARISCSGDNIGSFYVHWYQQKPGQAPVLVIYDKSNRPSGIPERFSGSNSGNTATLTISGTQAEDEADYYCQSYANTLSLVFGGGTKLTVLGQPKAAPSVTLFPPSSEELQANKATLVCLISDFYPGAVTVAWKADSSPVKAGVETTTPSKQSNNKYAASSYLSLTPEQWKSHRSYSCQVTHEGSTVEKTVAPTECS
inhibition of tumor growth (tumor volume) ([1]; OMP-18R5 25 mg/kg administered 3 days prior to paclitaxel 20 mg/kg, every three weeks i.p., versus same day, paclitaxel first, paclitaxel alone, FIG. 2): significantly better at inhibiting tumor growth of the UM-PE13 breast tumor cells than any of the other dosing regimens
tumor regression in individual mice ([1]; Wnt pathway inhibitor (OMP-18R5) administered before the taxane (paclitaxel)): tumors in several of the individual mice regressed to undetectable levels
inhibition of tumor growth (tumor volume) [2]: significantly better at inhibiting tumor growth of the OMP-LU77 lung tumor cells than any of the other dosing regimens
inhibition of tumor growth (tumor volume) [3]: inhibited tumor growth of the OMP-OV40 ovarian tumor cells to a greater extent than either the Wnt pathway inhibitors or paclitaxel alone; also recorded: inhibited tumor growth

— patent publication US20170247465A1, “COMBINATION THERAPY FOR TREATMENT OF CANCER” (OncoMed Pharmaceuticals, Inc., priority 2014, published 2017)
